From US20240272170A1 come the findings set out here.

Experiment [1] addresses RLp… after cleavage to N-terminal leucine (Lp…). Description: single-molecule dynamic sequencing on chip.
For experiment [2], the target named is … after cleavage to N-terminal leucine (…). Briefly: single-molecule dynamic sequencing on chip.
For experiment [3], the target named is EFIAWLV after cleavage to N-terminal leucine (LV). Briefly: on-chip dynamic sequencing of EFIAWLV, example trace.
Experiment [4] concerns the target RLp… after cleavage to N-terminal leucine (Lp…). Description: on-chip dynamic sequencing of RLp[..] with PS691, PS610, PS961; one example trace, segment at about 20-52 min, BR=0.28.
In experiment [5] the target is EFIAWLVK after cleavage to N-terminal leucine (LVK). Briefly: on-chip dynamic sequencing of the GLP-1 digest peptide EFIAWLVK, kinetic signature plot.
Substrate in experiment [6]: I of … / RLp… (IAYPDDD)
Description: on-chip dynamic sequencing of [..] with PS691, PS610, PS961; one example trace, segment at about 247-277 min, BR=0.27.

Experiment [7] concerns the target … after cleavage to N-terminal leucine (…). Description: on-chip dynamic sequencing of [..] with PS691, PS610, PS961; one example trace, segment at about 113-128 min, BR=0.31.
For experiment [8], the target named is EFIAWLV after cleavage to N-terminal leucine (LV). Description: on-chip dynamic sequencing of EFIAWLV, kinetic signature plot.
The target in experiment [9] is peptide with N-terminal LAA. Briefly: single-molecule on-chip recognition of immobilized peptide, dye-labeled recognizer.
Experiment [10] deals with peptide with N-terminal VAA. Described as above.
The target in experiment [11] is peptide with N-terminal IAA. The experiment is described as above.
Substrate in experiment [12]: I of … / RLp… (IAYPDDD)
Description: on-chip dynamic sequencing of RLp[..] with PS691, PS610, PS961; one example trace, segment at about 143-155 min, BR=0.25.

The target in experiment [13] is HL Peptide (stopped-flow). Description: stopped-flow rapid kinetics.
Experiment [14] addresses RL Peptide (stopped-flow). Description: stopped-flow rapid kinetics.
Experiment [15] addresses RA Peptide (stopped-flow). Briefly: stopped-flow rapid kinetics.
The target of experiment [16] is peptide …. Briefly: on-chip dynamic sequencing of [..] with PS691, PS610, PS961; one example trace, segment at about 107-113 min, BR=0.46.
In experiment [17] the target is T1, peptide RLMoFAYPDDD.
T1 sequence (peptide, M3 = methionine sulfoxide (Mo)): RLMFAYPDDD
Description: on-chip dynamic sequencing of RLMoFAYPDDD, example trace.

Experiment [18] addresses T2, RA peptide (X…-FITC, X = R).
T2 sequence (peptide, FITC on the C-terminal Lys): RAKLDEESILKQK
Description: fluorescence polarization titration, PS691 0-3000 nM.

The target in experiment [19] is T3, … after cleavage to N-terminal arginine (RLIFAGK).
T3 sequence (peptide): RLIFAGK
Briefly: on-chip dynamic sequencing of the ubiquitin digest peptide …, kinetic signature plot.

In experiment [20] the target is T4, … after cleavage to N-terminal arginine (RLIFAG).
T4 sequence (peptide, C-terminal azidolysine linked to DNA-streptavidin (p-0304)): RLIFAG
Briefly: on-chip dynamic sequencing of a mixture of … and … on one chip, signature of ….

Experiment [21] addresses T5, synthetic peptide ….
T5 sequence (peptide): RLAFSALGAADDD
The experiment is described as above.

For experiment [22], the target named is peptide …. Description: single-molecule dynamic sequencing on chip.
Experiment [23] deals with peptide RLp…. Briefly: single-molecule dynamic sequencing on chip.
The target of experiment [24] is peptide RLp…. Briefly: on-chip dynamic sequencing of RLp[..] with PS691, PS610, PS961; one example trace, segment at about 3-18 min, BR=0.43.
The target of experiment [25] is T6, synthetic peptide ….
T6 sequence (peptide): RLAFAYPDDD
Briefly: on-chip dynamic sequencing of …, example trace.

The target in experiment [26] is T7, synthetic peptide ….
T7 sequence (peptide): RLIFAYPDDD
Briefly: on-chip dynamic sequencing of …, example trace. This is another data set of the same source.

Experiment [27] has as its target T4, … after cleavage to N-terminal arginine (RLIFAG). Description: on-chip dynamic sequencing of …, example trace.
The target of experiment [28] is T8, synthetic peptide ….
T8 sequence (peptide): RLMFAYPDDD
Description: on-chip dynamic sequencing of …, example trace. The source holds these as a separate data set.

Experiment [29] deals with T9, … after cleavage to N-terminal arginine (…).
T9 sequence (peptide): RLAASFAAQQYPDDD
Briefly: on-chip dynamic sequencing of …, example trace.

The target of experiment [30] is T5, synthetic peptide …. Briefly: on-chip dynamic sequencing of …, example trace. The source holds these as a separate data set.
Experiment [31] concerns the target T10, synthetic peptide ….
T10 sequence (peptide): RLVFAYPDDD
Description: on-chip dynamic sequencing of …, example trace. The source holds these as a separate data set.

Experiment [32] addresses T4, … after cleavage to N-terminal arginine (RLIFAG). Briefly: on-chip dynamic sequencing of …, upper trace.
Experiment [33] concerns the target T2, RA peptide (X…-FITC, X = R). Description: fluorescence polarization titration, recognizer 0-3000 nM, labeled peptide fixed. (In general: Fluorescence polarisation rises when a labelled molecule tumbles more slowly, as on binding a larger partner.)
The target of experiment [34] is T4, … after cleavage to N-terminal arginine (RLIFAG). Briefly: on-chip dynamic sequencing of …, lower trace.
Experiment [35] deals with T6, synthetic peptide …. Briefly: on-chip dynamic sequencing of …, kinetic signature plot.
In experiment [36] the target is T7, synthetic peptide …. Described as above. The source holds these as a separate data set.
Experiment [37] deals with T4, … after cleavage to N-terminal arginine (RLIFAG). The description is as above.
In experiment [38] the target is T9, … after cleavage to N-terminal arginine (…). Described as above.
Experiment [39] addresses T5, synthetic peptide …. The experiment is described as above. The source holds these as a separate data set.
The target in experiment [40] is T10, synthetic peptide …. The description is as above. This is another data set of the same source.
Experiment [41] concerns the target T11, QP304-RAIFAG peptide.
T11 sequence (peptide): RAIFAG
Briefly: single-molecule on-chip recognition run.

Experiment [42] addresses peptide with N-terminal RLA. Description: single-molecule on-chip recognition of immobilized peptide, dye-labeled recognizer.

B1: PS961 (designed binder)
chain: MPTAASATESAIEDTPAPARPEVDGRTKPKRQPRYHVVLWDDDDHTYQYVVVMLRSLFGHPPSRGYRMAKEMDTQGRVIVLTTTREHAELKRDQIHAFGRDRLLARSKGSMKASIEAEE
Consider B1, for which the RS mean pulse duration (PD) came to 3.4 s in [1] and 2.45 s in experiment [2]. For the same molecule, the PD printed above the recognition segment (one trace) in experiment [3] was found to be 5.92 s. Also, the PW (pulse width of the segment in the example trace) in experiment [4] was 3.57; in [6] it was 0.2; in [7] it was 2.93; in [12] it was 0.24. In addition, the median PD (kinetic signature) came out at 2.99 s in experiment [5] and 5.3 s in [8]. Also, the median pulse duration (PD) in experiment [9] stood at 1.21 s; in experiment [10], 0.21 s; in [11], 0.28 s.

B2: PS691 (designed binder, from a related filing)
chain: MHSKFSHAGRICGAKFKVGEPIYRCKECSFDDTCVLCVNCFNPKDHTGHHVYTTICTEFNNGICDCGDKEAWNHTLFCKAEEGGSAGSAAGSGEFMHSKFSHAGRICGAKFKVGEPIYRCKECSFDDTCVLCVNCFNPKDHTGHHVYTTICTEFNNGICDCGDKEAWNHTLFCKAEEGGGSHHHHHHHHHHGGGSGGGSGGGSGLNDFFEAQKIEWHEGGGSGGGSGGGSGLNDFFEAQKIEWHE
As a reminder, the koff is the first-order rate constant of dissociation. Higher therefore signals fast dissociation. The term kon denotes the second-order rate constant of association. The term Kd denotes a measure of binding affinity in units of concentration. A lower Kd goes with tighter binding. For the molecule B2, the dissociation rate constant (koff) in experiment [13] is 51.4 s⁻¹; in experiment [14], 19.7 s⁻¹; in experiment [15] it was 69.4 s⁻¹. In addition, in experiment [15], the on-rate constant (kon) worked out at 2.6e+07 M⁻¹ s⁻¹. The values for the PW (pulse width of the segment in the example trace) in [16] and in experiment [24] were 0.9 and 0.54, respectively. Besides, the PD printed above the recognition segment (one trace) in experiment [17] came out at 0.25 s; in experiment [25], 0.25 s; in experiment [26], 0.29 s; in experiment [27] it was 0.29 s; in experiment [28] it was 0.27 s; in experiment [29] it was 0.17 s. The PD printed above the recognition segment (one trace) came out at 0.17 s in [30], 0.27 s in experiment [31], 0.21 s in experiment [32] and 0.34 s in [34]. The dissociation constant (Kd) in [18] and in [33] was 369 nM in each case. For the same molecule, the median PD (kinetic signature) worked out at 0.31 s in experiment [19]; 0.26 s in experiment [20]; 0.21 s in experiment [21]; 0.22 s in [35]; 0.29 s in [36]; 0.24 s in experiment [37]. The median PD (kinetic signature) in [38] was determined as 0.17 s; in experiment [39], 0.19 s; in experiment [40], 0.27 s. Besides, the RS mean pulse duration (PD) is 0.9 s in experiment [22] and 0.45 s in experiment [23]. The molecule also gave a pulse duration in experiment [41] of 0.16 s. Besides, in experiment [42], the median pulse duration (PD) amounted to 0.23 s.
